Laboratory results taken from patent US12252711B2, “Osteoporosis model comprising calcium phosphate hydrogel composition and use thereof” (MEDIFAB CO., LTD., priority 2019, dated 2025).

Assays:
Type in all cases: cell-based
MC3T3-E1 cells = test: Differentiation of osteoblast progenitor culture mass in biogel (ALP/ACP assay, ALP staining); conditions: day 3 and day 7
Description: Osteoblasts progenitor cells, MC3TC-E1 were mixed with the biogel prepared in Example 6, in amounts of […], and 100 μL of each of the resulting mixture solution was gelled using a casting gel, to consequently yield three-dimensional culture mass, each containing 7×10^3 and 1×10^5 cells. Then, the three-dimensional culture mass were three-dimensionally cultured for 7 days in osteoblast media, which were formed by adding 10 mM of β-glycerophosphate (Sigma Aldrich, USA), 50 μg/ml of ascorbic acid (Sigma Aldrich, USA), and 10 nM of dexamethasone (Sigma Aldrich, USA) to growth media supplemented with α-MEM (Welgene, Korea) supplemented with 10% fetal bovine serum (FBS) (Gibco, USA), 100 U/ml of penicillin (Welgene, Korea), and […] of streptomycin (Welgene, Korea). Thereafter, on day 3 and day 7 of culturing, differences in the expression level of ALP protein, which is an early osteoblast differentiation factor, were examined at different cell densities of culture mass, using ALP assay kit (Abcam, ab83369) and ALP staining kit (Sigma, P5869). […]
(§1) Subsequently, on day 3 and day 7 of culturing, the MC3T3-E1 cells were measured for the osteoclast differentiation marker ACP, and the RAW264.7 cells were measured for the osteoblast differentiation marker ALP, to determine the influence of their respective differentiation markers on each other.

RAW264.7 cells = test: Differentiation of osteoclast progenitor culture mass in biogel (ACP/ALP assay, TRAP staining); conditions: RAW264.7 in biogel, 100 ng/ml Rankl, compared to control group (GM)
Description: 8-2. Culturing of Osteoclasts Osteoclast progenitor cells RAW264.7 were mixed with the biogel prepared in Example 6, in amounts of 5×10^5 cells/ml, 7×10^5 cells/ml, 1×10^6 cells/ml, and 3×10^6 cells/ml, and 100 μL of each of the resulting mixture liquids was gelled using a casting gel, to consequently yield three-dimensional culture mass, each containing 5×10^4 cells, 7×10^4 cells, 1×10^5 cells, 3×10^5 cells, and […]. Then, the three-dimensional culture mass were three-dimensionally cultured for 7 days in osteoclast media, which were formed by adding 100 ng/ml of Rankl to growth media containing α-MEM (Welgene, Korea) supplemented with 10% fetal bovine serum (FBS) (Gibco, USA), 100 U/ml of penicillin (Welgene, Korea), and […] of streptomycin (Welgene, Korea). Then, using ACP assay kit (Abcam, ab83367) and TRAP staining kit (Sigma, 181A), differences in the expression level of osteoclast differentiation factor were examined at different cell numbers. […]
as §1

[1] = tested on: MC3T3-E1 cells and RAW264.7 cells co-culture; test: Differentiation in 3D co-culture mass in biogel (ALP and ACP assay, ALP and TRAP staining)
Description: In detail, after dissolving 0.5% agarose in 300 mM CaCl2 solution, the Phenol Red solution was added in an amount of 5 mg/L to produce a casting gel solution. Then, after introducing 5-5.5 ml of the casting gel solution into a casting tray, a three-dimensional semi-spherical casting mold was inserted in the casting tray, and after completely solidifying the casting gel solution, the casting mold was carefully removed to produce a three-dimensional semi-spherical casting gel mold. The biogel, 1×10^5 cells/ml of osteoblast progenitor cells MC3T3-E1, and 5×10^4 cells/ml of osteoclast progenitor cells RAW264.7, were introduced into the casting gel mold and subjected to gelation to yield a three-dimensional co-culture mass. Then, the co-culture mass was cultured in the following media: media treated only with an osteoblast differentiation induction factor (+3F); media only treated with an osteoclast differentiation induction factor (+R); and media treated with both osteoblast differentiation induction factor and osteoclast differentiation induction factor (+3F+R). Then, osteoblast differentiation profiles were characterized through ALP expression levels.
9-2. Creating the bone resorption environment through co-culture of osteoblasts and osteoclasts Under the same conditions as shown in Example 9-1, osteoclast differentiation profiles were characterized by […].

B1: Rankl (protein, UniProt O14788 140-317, looked up)
Tumor necrosis factor ligand …: IRAEKAMVDGSWLDLAKRSKLEAQPFAHLTINATDIPSGSHKVSLSSWYHDRGWAKISNMTFSNGKLIVNQDGFYYLYANICFRHHETSGDLATEYLQLMVYVTKTSIKIPSSHTLMKGGSTKYWSGNSEFHFYSINVGGFFKLRSGEEISIEVSNPSLLDPDQDATYFGAFKVRDID
notes: 100 ng/ml of Rankl added to growth media
MC3T3-E1 cells
  expression of osteoblast differentiation marker ALP: little expression
  expression of osteoclast differentiation marker ACP: little expression
RAW264.7 cells
  expression of osteoclast differentiation factor ACP: increased
[1]; combined treatment compared with osteoblast factor only
  ALP expression (osteoblast differentiation): trace amount
[1]; day 3 and day 7, combined treatment compared with osteoclast factor only
  ACP expression (osteoclast differentiation): increased
